For test [1], the target named is PfCSP on the surface of live Pf NF54 sporozoites (Plasmodium falciparum NF54 (endogenous in sporozoites)) (UniProt P19597). Description: flow cytometry on cells; imaging flow cytometry (ImageStreamX Mk II) of live (propidium iodide-negative) Pf midgut sporozoites isolated from oocysts; mAb 1 µg/ml, 30 min 4°C, Cy5 anti-human IgG1. A general note: Flow cytometry measures light scatter and fluorescence of single cells or particles in a stream.

For test [2] the target is unchanged. Description: flow cytometry on cells; imaging flow cytometry (ImageStreamX Mk II) of live (propidium iodide-negative) Pf salivary gland sporozoites; mAb 1 µg/ml, 30 min 4°C, Cy5 anti-human IgG1.
The target in test [3] is T1, PfCSP_(71–104) (N-CSP construct) (Plasmodium falciparum, UniProt P19597).
T1 construct: Plasmodium falciparum circumsporozoite protein residues 71–104, cloned into a pETM-22 vector; pETM-22 adds, as far as I recall, an N-terminal thioredoxin and His6 with a 3C protease site; source: E. coli BL21(DE3), purified (HisTrap, SEC)
T1 chain: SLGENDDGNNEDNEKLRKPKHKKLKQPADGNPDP
Nature of the test: ELISA; PfCSP71–104 coated at 50 ng/well; mAb at 4.00, 1.00, 0.25 and 0.06 µg/ml; goat anti-human IgG-HRP; area under the curve. Conditions: both partners purified. For orientation: An ELISA detects its analyte on a solid surface through an enzyme-linked reagent.

The target in test [4] is T1, PfCSP_(71–104) (N-CSP construct). Description: SEC; 5D5 Fab complexed with PfCSP71–104 at 1:1 molar ratio, with or without 100-fold molar excess of heparin sodium salt; Superdex 200 Increase 10/300 GL; peak fractions on non-reducing SDS-PAGE. Conditions: both partners purified. (In general: In gel filtration, larger molecules generally elute earlier.)
For the next test, the target named is T2, PfCSP_(81–98) peptide (Plasmodium falciparum, UniProt P19597).
T2 construct: Plasmodium falciparum circumsporozoite protein residues 81–98; Only residues 81–92 are resolved in the crystal structure; also called N-CSP peptide; source: synthetic peptide, bought: GenScript
T2 chain: EDNEKLRKPKHKKLKQPA
Description: crystal structure; 5D5 Fab and PfCSP81–98 peptide mixed 1:5; 20% (wt/vol) PEG 3350, 0.2 M di-ammonium citrate; 1.85 Å. Particulars: both partners purified.

Sequence of PfCSP on the surface of live Pf NF54 sporozoites (Plasmodium falciparum NF54 (endogenous in sporozoites)) (P19597 19-374): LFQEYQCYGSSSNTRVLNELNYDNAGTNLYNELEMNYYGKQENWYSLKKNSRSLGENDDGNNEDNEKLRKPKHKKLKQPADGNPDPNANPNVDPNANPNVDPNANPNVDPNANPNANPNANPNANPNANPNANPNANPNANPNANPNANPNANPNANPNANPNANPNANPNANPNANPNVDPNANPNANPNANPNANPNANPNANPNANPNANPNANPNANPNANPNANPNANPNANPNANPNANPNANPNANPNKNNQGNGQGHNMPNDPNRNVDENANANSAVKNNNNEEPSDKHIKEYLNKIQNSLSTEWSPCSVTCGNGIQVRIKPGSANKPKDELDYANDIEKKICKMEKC

B1: 5D5 IgG (5D5 variable regions on human Igγ1 and Igκ, for non-yeast display experiments) (antibody, V domains shown)
VH: QVHLQQSGGEVARPGASVKLSCKASGYTFTGYGLSWVKQRTGQGLEWIGEIYPRSGNTYYNEKFKGKATLTADKSSSTAYMELRSLTSEDSAVYFCARSWGNSSFVYWGQGTLVTVSA
VL: SIVMTQTPKFLLVSAGDRVTITCKASQSVTNDVTWYQQKPGQSPKLLIYYASNRYTGVPDRFTGSGYGTDFTFTISTVQAEDLAVYFCQQDYSSPFTFGSGTKLEIK
notes: as the heavy chain of m1 (5D5 VH + human Igγ1-CH1); two residues that replace the two stop codons of the Fab heavy chain vector; human immunoglobulin gamma-1 constant region, the part after the Fab heavy chain through the CH2 and CH3 domains; as the light chain of m1 (5D5 VL + human Igκ); Chimeric human IgG1; detected with anti-human IgG1 or anti-human IgG secondary antibodies; also called mAb …
Take B1: in test [1], the mAb-bound sporozoites (pos1) of tot1 262, Exp 1 turned out to be 67 sporozoites; the mAb-bound sporozoites (pos1) of tot1 728, Exp 2 turned out to be 229 sporozoites; the mAb-bound sporozoites (pos1) of tot1 1,456, Exp 3 turned out to be 366 sporozoites. In test [2], the fold decrease in MFI of mAb-bound sporozoites against mAb 1210 worked out at 2 fold; the mAb-bound sporozoites (pos1) of tot1 487, Exp 2 was found to be 82 sporozoites; the mAb-bound sporozoites (pos1) of tot1 545, Exp 1 was found to be 176 sporozoites; the mAb-bound sporozoites (pos1) of tot1 1096, Exp 3 amounted to 316 sporozoites. Further, in test [2], the proportion of mAb-bound sporozoites is 27%. The binding result in test [3] is “binds”.

B2: 5D5 Fab expressed in HEK293F cells (complex glycan at H.Asn98) (Fab, V domains shown)
VH: B1 VH
VL: B1 VL
notes: murine mAb 5D5 VH cloned immediately upstream of human Igγ1-CH1; murine mAb 5D5 VL cloned immediately upstream of human Igκ; Chimeric Fab (mouse variable, human constant domains); The crystal structure used this glycoform; also called HEK293F–expressed 5D5 Fab; source: HEK293F, transient cotransfection, purified (KappaSelect, MonoS, SEC)
For B2, the binding result (in test [4]; in the test with PfCSP_(81–98) peptide) was “binds” throughout.

The record behind these values is publication PMC7596816 (The Journal of Experimental Medicine, 2020).
